Common to all, as to experiment: cell-based or functional assay
The target of experiment [1] is BACE1 endogenous to primary cortical neurons from E16.5 CD1 mice (mouse, UniProt P56818 46-501).
In experiment [2] the target is BACE1 ECD (as used in the enzyme activity assay) (UniProt P56817 22-457, limits assumed).
For another experiment, the target named is human BACE1 ECD (human, UniProt P56817).
The target of a further experiment is murine BACE1 ECD.
Wherever % inhibition, FRET short substrate assay (negative = activation) is given: test concentration or dose not given here.

BACE1 ECD (as used in the enzyme activity assay), sequence (P56817 22-457 limits assumed): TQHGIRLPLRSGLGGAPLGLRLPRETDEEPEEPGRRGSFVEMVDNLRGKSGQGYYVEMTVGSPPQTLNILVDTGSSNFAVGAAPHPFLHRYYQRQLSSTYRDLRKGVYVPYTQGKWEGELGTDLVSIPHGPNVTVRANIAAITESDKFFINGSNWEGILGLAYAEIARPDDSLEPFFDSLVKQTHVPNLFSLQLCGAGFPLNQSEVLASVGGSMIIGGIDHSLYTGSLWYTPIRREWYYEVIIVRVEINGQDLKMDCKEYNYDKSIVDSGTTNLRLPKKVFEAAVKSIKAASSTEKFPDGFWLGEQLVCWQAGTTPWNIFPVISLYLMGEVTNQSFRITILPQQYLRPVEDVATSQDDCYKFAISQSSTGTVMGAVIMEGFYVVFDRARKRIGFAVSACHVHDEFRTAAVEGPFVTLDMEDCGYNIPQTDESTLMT
human BACE1 ECD, sequence (P56817 22-457): as the sequence (P56817 22-457 limits assumed) above
murine BACE1 ECD, sequence (single chain, as listed by the source limits assumed): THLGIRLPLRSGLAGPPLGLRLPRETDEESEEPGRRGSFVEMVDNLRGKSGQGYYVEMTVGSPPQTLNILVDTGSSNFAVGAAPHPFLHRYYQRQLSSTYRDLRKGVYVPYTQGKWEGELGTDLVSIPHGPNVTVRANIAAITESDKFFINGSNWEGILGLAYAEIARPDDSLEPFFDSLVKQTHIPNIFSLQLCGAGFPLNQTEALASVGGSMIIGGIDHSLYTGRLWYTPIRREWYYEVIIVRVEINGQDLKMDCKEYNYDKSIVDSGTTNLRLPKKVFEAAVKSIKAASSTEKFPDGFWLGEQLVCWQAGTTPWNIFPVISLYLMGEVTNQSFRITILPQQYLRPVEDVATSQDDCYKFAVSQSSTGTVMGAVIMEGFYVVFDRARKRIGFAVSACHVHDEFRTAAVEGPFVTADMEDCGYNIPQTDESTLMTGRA
BACE1 endogenous to primary cortical neurons from E16.5 CD1 mice, sequence (P56818 46-501): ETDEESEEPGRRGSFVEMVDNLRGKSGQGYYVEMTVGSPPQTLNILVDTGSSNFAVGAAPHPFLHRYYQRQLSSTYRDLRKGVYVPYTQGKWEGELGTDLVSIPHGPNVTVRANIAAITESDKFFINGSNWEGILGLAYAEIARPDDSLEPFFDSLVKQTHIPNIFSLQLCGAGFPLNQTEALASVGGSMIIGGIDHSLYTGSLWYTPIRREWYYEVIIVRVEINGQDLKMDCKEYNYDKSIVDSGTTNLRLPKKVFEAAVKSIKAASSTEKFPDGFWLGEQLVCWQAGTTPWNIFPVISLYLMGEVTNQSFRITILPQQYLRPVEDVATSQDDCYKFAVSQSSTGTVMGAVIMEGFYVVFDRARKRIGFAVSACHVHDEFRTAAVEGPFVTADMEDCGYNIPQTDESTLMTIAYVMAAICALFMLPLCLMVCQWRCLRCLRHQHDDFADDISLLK

B1: 6296 (antibody, V domains shown)
VH: QLQLQESGPGLVKPSETLSLTCTVSGGSISSSSYYWGWIRQPPGKGLEWIGNIYYSGSTYYNPSLRGRVTISVDTSKNQFSLKLSSVTAADTAVYYCARLGHGYNYFDLWGRGTLVTVSS
VL: EIVLTQSPATLSLSPGERATLSCRASQSVSSYLAWFQQKPGQAPRLLIYDASNRATGIPARFSGSGSGTDFTLTISSLEPEDFAVYYCQQVYVWPPRTFGGGTKVEIK
Turning to B1, the “max % inhibition, Abeta x-40 in mouse cortical neurons” value (from here on “max % inhibition”) in experiment [1] came out at 62%.

B2: 6297 (antibody, V domains shown)
VH: QLQLQESGPGLVKPSETLSLTCTVSGGPISSSSYYWGWIRQPPGKGLEWIGNIYYSGSTYYNPSLRGRVTISVDTSKNQFSLKLSSVTAADTAVYYCARLGHGYNYFDLWGRGTLVTVSS
VL: EIVLTQSPATLSLSPGERATLSCRASQSVSSYLAWFQQKPGQAPRLLIYDASNRATGIPARFSGSGSGTDFTLTISSLEPEDFAVYYCQQVYVWPPRTFGGGTKVEIK
As to B2, the “max % inhibition” value in experiment [1] stood at 63%.

B3: 6298 (antibody, V domains shown)
VH: QLQLQESGPGLVKPSETLSLTCTVSGGSISWSSYYWSWIRQPPGKGLEWIGNIYYSGSTYYNPSLKSRVTISVDTSKNQFSLKLSSVTAADTAVYYCARLGHGYNYFDLWGRGTLVTVSS
VL: EIVLTQSPATLSLSPGERATLSCRASQSVSSYLAWFQQKPGQAPRLLIYDASNRATGIPARFSGSGSGTDFTLTISSLEPEDFAVYYCQQVYVWPPRTFGGGTKVEIK
In the case of B3, the “max % inhibition” value in experiment [1] amounted to 67%.

B4: 5878 (antibody, V domains shown)
VH: EVQLLESGGGLVQPGGSLRLSCAASGFTFSSYAMSWVRQAPGKGLEWVSAISGSGISTPYADSVKGRFTISRDNSKNTLYLQMNSLRAEDTAVYYCAKGAGHGSYVKGWFDPWGQGTLVTVSS
VL: EIVLTQSPATLSLSPGERATLSCRASQSVSSYLAWYQQKPGQAPRLLIYDASNRATGIPARFSGSGSGTDFTLTISSLEPEDFAVYYCQQSVNFPFTFGGGTKVEIK
Consider B4, for which, in experiment [2], the “EC50, FRET short substrate assay” value is 24.3 nM and the “EC50, HTRF long substrate assay” value turned out to be 164 nM. The “% inhibition, FRET short substrate assay (negative = activation)” value (“% inhibition, FRET short substrate assay” for short) in the experiment with human BACE1 ECD is 99%. Also, the “% inhibition, FRET short substrate assay” value with murine BACE1 ECD amounted to 98%.

B5: 5583 (antibody, V domains shown)
VH: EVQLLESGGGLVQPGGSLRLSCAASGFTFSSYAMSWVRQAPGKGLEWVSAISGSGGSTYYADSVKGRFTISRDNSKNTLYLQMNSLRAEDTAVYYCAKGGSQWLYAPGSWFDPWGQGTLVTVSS
VL: EIVLTQSPATLSLSPGERATLSCRASQSVSSYLAWYQQKPGQAPRLLIYDASNRATGIPARFSGSGSGTDFTLTISSLEPEDFAVYYCVQRSNFPWTFGGGTKVEIK
In the case of B5, the “EC50, FRET short substrate assay” value in experiment [2] is 9.72 nM. The “EC50, HTRF long substrate assay” value in experiment [2] was found to be 172 nM. Moreover, the “% inhibition, FRET short substrate assay” value with human BACE1 ECD amounted to 44%; with murine BACE1 ECD it was 34%.

B6: 5881 (antibody, V domains shown)
VH: EVQLLESGGGLVQPGGSLRLSCAASGFTFSKYAMSWVRQAPGKGLEWVSAISGSGISTPYADSVKGRFTISRDNSKNTLYLQMNSLRAEDTAVYYCAKGAGHGSYVKGWFDPWGQGTLVTVSS
VL: EIVLTQSPATLSLSPGERATLSCRASQSVSSYLAWYQQKPGQAPRLLIYDASNRATGIPARFSGSGSGTDFTLTISSLEPEDFAVYYCQQSVNFPFTFGGGTKVEIK
For B6, the “EC50, FRET short substrate assay” value in experiment [2] stood at 5.93 nM. Moreover, in experiment [2], the “EC50, HTRF long substrate assay” value is 33.7 nM. Also, the “% inhibition, FRET short substrate assay” value with human BACE1 ECD amounted to 97%; in the experiment with murine BACE1 ECD, 98%.

B7: 5880 (antibody, V domains shown)
VH: EVQLLESGGGLVQPGGSLRLSCAASGFTFGSYAMTWVRQAPGKGLEWVSAISGSGISTPYADSVKGRFTISRDNSKNTLYLQMNSLRAEDTAVYYCAKGAGHGSYVKGWFDPWGQGTLVTVSS
VL: EIVLTQSPATLSLSPGERATLSCRASQSVSSYLAWYQQKPGQAPRLLIYDASNRATGIPARFSGSGSGTDFTLTISSLEPEDFAVYYCQQSVNFPFTFGGGTKVEIK
Consider B7, for which, in experiment [2], the “EC50, FRET short substrate assay” value stood at 7.88 nM and the “EC50, HTRF long substrate assay” value was found to be 171 nM. In the experiment with human BACE1 ECD, the “% inhibition, FRET short substrate assay” value was 99%. In addition, in the experiment with murine BACE1 ECD, the “% inhibition, FRET short substrate assay” value is 97%.

B8: 5875 (antibody, V domains shown)
VH: EVQLLESGGGLVQPGGSLRLSCAASGFTFSTYAMGWVRQAPGKGLEWVSATSGSGGSTYYADSVKGRFTISRDNSKNTLYLQMNSLRAEDTAVYYCAKGGSQWLYAPGSWFDPWGQGTLVTVSS
VL: EIVLTQSPATLSLSPGERATLSCRASQSVSSYLAWYQQKPGQAPRLLIYDASNRATGIPARFSGSGSGTDFTLTISSLEPEDFAVYYCVQRSNFPWTFGGGTKVEIK
For B8, in experiment [2], the “EC50, FRET short substrate assay” value amounted to 1.99 nM and the “EC50, HTRF long substrate assay” value came to 4.9 nM. The “% inhibition, FRET short substrate assay” value with human BACE1 ECD amounted to 51%. Further, the “% inhibition, FRET short substrate assay” value in the experiment with murine BACE1 ECD turned out to be 39%.

B9: 5532 (antibody, V domains shown)
VH: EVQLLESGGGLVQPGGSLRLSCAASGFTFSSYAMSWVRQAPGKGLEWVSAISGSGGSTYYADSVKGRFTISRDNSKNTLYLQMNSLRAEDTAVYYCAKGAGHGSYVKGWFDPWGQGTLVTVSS
VL: EIVLTQSPATLSLSPGERATLSCRASQSVSSYLAWYQQKPGQAPRLLIYDASNRATGIPARFSGSGSGTDFTLTISSLEPEDFAVYYCQQSSNFPFTFGGGTKVEIK
Regarding B9, in experiment [2], the “EC50, FRET short substrate assay” value amounted to 52.3 nM and the “EC50, HTRF long substrate assay” value was determined as 104 nM. Moreover, the “% inhibition, FRET short substrate assay” value with human BACE1 ECD was found to be 56%. Moreover, in the experiment with murine BACE1 ECD, the “% inhibition, FRET short substrate assay” value stood at 50%.

B10: 5592 (antibody, V domains shown)
VH: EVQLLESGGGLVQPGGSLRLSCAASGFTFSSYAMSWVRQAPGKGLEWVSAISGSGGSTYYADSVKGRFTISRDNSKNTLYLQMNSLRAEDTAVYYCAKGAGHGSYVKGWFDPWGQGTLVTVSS
VL: EIVLTQSPATLSLSPGERATLSCRASQSVSSYLAWYQQKPGQAPRLLIYDASNRATGIPARFSGSGSGTDFTLTISSLEPEDFAVYYCQQSVNFPFTFGGGTKVEIK
Regarding B10, in experiment [2], the “EC50, FRET short substrate assay” value stood at 95.9 nM and the “EC50, HTRF long substrate assay” value was 189 nM. Moreover, the “% inhibition, FRET short substrate assay” value with human BACE1 ECD turned out to be 63%. The “% inhibition, FRET short substrate assay” value in the experiment with murine BACE1 ECD was 60%.

B11: 5876 (antibody, V domains shown)
VH: EVQLLESGGGLVQPGGSLRLSCAASGFTFSSRAMGWVRQAPGKGLEWVSATSGSGGSIYYADSVKGRFTISRDNSKNTLYLQMNSLRAEDTAVYYCAKGGSQWLYAPGSWFDPWGQGTLVTVSS
VL: EIVLTQSPATLSLSPGERATLSCRASQSVSSYLAWYQQKPGQAPRLLIYDASNRATGIPARFSGSGSGTDFTLTISSLEPEDFAVYYCVQRSNFPWTFGGGTKVEIK
B11: in experiment [2], the “EC50, FRET short substrate assay” value stood at 0.703 nM. Besides, the “EC50, HTRF long substrate assay” value in experiment [2] amounted to 1.67 nM. Besides, the results for the “% inhibition, FRET short substrate assay” value with human BACE1 ECD and in the experiment with murine BACE1 ECD were 58% and 46%, respectively.

B12: 5874 (antibody, V domains shown)
VH: EVQLLESGGGLVQPGGSLRLSCAASGFTFGSYAMSWVRQAPGKGLEWVSATSGSGGSTYYADSVKGRFTISRDNSKNTLYLQMDSLRAEDTAVYYCAKGGSQWLYAPGSWFDPWGQGTLVTVSS
VL: EIVLTQSPATLSLSPGERATLSCRASQSVSSYLAWYQQKPGQAPRLLIYDASNRATGIPARFSGSGSGTDFTLTISSLEPEDFAVYYCVQRSNFPWTFGGGTKVEIK
As to B12, in experiment [2], the “EC50, FRET short substrate assay” value was determined as 0.798 nM and the “EC50, HTRF long substrate assay” value is 3.97 nM. Further, in the experiment with human BACE1 ECD, the “% inhibition, FRET short substrate assay” value was determined as 37%. Moreover, in the experiment with murine BACE1 ECD, the “% inhibition, FRET short substrate assay” value worked out at 33%.

These data come from patent publication US20210206877A1 (Genentech, published 2021).
